In paper PMC3602593 one finds Kd, koff and kon data, which are given here for 5 substances.

The assay concerns the target DARPin H10-2-G3. Put plainly: SPR; G3 DARPin amine-coupled (about 1,200 RU) on a GLC chip, ProteOn XPR36; HER2 constructs injected as analyte (One-Shot Kinetics, 30 uL/min, 120 s); 25°C; HBS-EBP+ (10 mM HEPES, 150 mM NaCl, 3 mM EDTA, 0.1% BSA, 0.05% Tween 20); global fit to a 1:1 model, KD = kd/ka.
What is called Kd is a measure of binding affinity in units of concentration. The low end stands for higher affinity, the high end for lower affinity. For orientation: koff means the first-order rate constant of dissociation. A lower koff goes with slow dissociation. As a reminder, the kon is a measure of how fast the partners come together. The low end stands for slow association, the high end for fast association. “HER2 extracellular domain, residues 1-623, Ser 551→Ala (from UniProt P04626 23-645) (domain or fragment)” displayed a Kd of 12.8 nM, an off-rate constant (koff) of 0.0035 s⁻¹ and a kon of 285000 M⁻¹ s⁻¹.
“HER2 extracellular domain, residues 1-623, Val 552→Ala (from UniProt P04626 23-645) (domain or fragment)” showed an equilibrium dissociation constant (Kd) of 380 nM, a koff of 0.064 s⁻¹ and a kon of 169000 M⁻¹ s⁻¹.
“HER2 extracellular domain, residues 1-623, Phe 555→Ala (from UniProt P04626 23-645) (domain or fragment)” registered a Kd of 210 nM, a koff of 0.0384 s⁻¹ and an association rate constant (kon) of 184000 M⁻¹ s⁻¹.
For “human epidermal growth factor receptor 2 (HER2) extracellular domain, residues 1-623, wild type (from UniProt P04626 23-645) (domain or fragment)”, in that order: 3.3 nM, 0.00107 s⁻¹ and 322000 M⁻¹ s⁻¹.
Turning to “HER2 extracellular domain, residues 1-623, Leu 525→Ala (from UniProt P04626 23-645) (domain or fragment)”, the dissociation constant (Kd) was determined as 265 nM, the koff was 0.0393 s⁻¹ and the on-rate constant (kon) was determined as 149000 M⁻¹ s⁻¹.
